What was measured:
[1] = biological target: taxol-stabilized microtubules (bovine brain tubulin) (bovine) (UniProt Q6B856); assay: co-sedimentation
[2] = biological target: T1, Bik1 (purified from insect cells, 6xHis tag removed) (S. cerevisiae, UniProt P11709 1-440); assay: SEC + other: sucrose gradient sedimentation
T1 sequence (looked up): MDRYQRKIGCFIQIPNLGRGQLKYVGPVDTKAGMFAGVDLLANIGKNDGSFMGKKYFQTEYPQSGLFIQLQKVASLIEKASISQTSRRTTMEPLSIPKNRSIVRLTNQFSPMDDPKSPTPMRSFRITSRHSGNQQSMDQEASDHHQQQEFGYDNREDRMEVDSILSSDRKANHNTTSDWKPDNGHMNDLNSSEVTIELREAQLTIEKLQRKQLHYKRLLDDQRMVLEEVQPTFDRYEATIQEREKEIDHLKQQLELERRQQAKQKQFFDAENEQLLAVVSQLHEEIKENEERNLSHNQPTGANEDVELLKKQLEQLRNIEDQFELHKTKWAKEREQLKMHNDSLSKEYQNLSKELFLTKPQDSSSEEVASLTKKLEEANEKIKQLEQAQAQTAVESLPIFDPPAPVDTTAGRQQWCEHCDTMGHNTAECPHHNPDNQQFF

[3] = biological target: the molecule itself; assay: SEC + other: sucrose gradient sedimentation

B1: Bim1 (purified from insect cells, 6xHis tag removed) (natural protein, S. cerevisiae, UniProt P40013 1-344, looked up)
chain: MSAGIGESRTELLTWLNGLLNLNYKKIEECGTGAAYCQIMDSIYGDLPMNRVKFNATAEYEFQTNYKILQSCFSRHGIEKTVYVDKLIRCKFQDNLEFLQWLKKHWIRHKDESVYDPDARRKYRPIITNNSATKPRTVSNPTTAKRSSSTGTGSAMSGGLATRHSSLGINGSRKTSVTQGQLVAIQAELTKSQETIGSLNEEIEQYKGTVSTLEIEREFYFNKLRDIEILVHTTQDLINEGVYKFNDETITGHGNGNGGALLRFVKKVESILYATAEGFEMNDGEDELNDKNLGEHGTVPNQGGYANSNGEVNGNEGSNHDVIMQNDEGEVGVSNNLIIDEETF
[1]
  Kd: 500 nM
[2]
  stoichiometry N: 1 Bim1 per Bik1 (2:2 tetramer)

B2: Bim1, endogenous in yeast whole cell extract (natural protein, S. cerevisiae (endogenous in CUY28), UniProt P40013 1-344, looked up)
chain: B1 chain
[3]
  stoichiometry N: 2

B3: Bik1, endogenous in yeast whole cell extract (natural protein, S. cerevisiae (endogenous in CUY28), UniProt P11709 1-440, looked up)
chain: T1 sequence (looked up)
[3]
  stoichiometry N: 2

Source: paper PMC2883945 (Molecular Biology of the Cell, 2010)
